Laboratory results taken from patent publication US20240287501A1 (VIB VZW, published 2024).
Values belong to the binder of their own block, whether it stands above or below them.

Experiments:
[1] = molecular target: T1, BMH1 (native, from EBY100 lysate) (Saccharomyces cerevisiae, UniProt P29311 2-267); assay: co-IP, Nb on NHS-agarose beads, EBY100 yeast lysate, SDS-PAGE
T1 construct: mature; Endogenous untagged protein; also called YER177W
T1 sequence (looked up): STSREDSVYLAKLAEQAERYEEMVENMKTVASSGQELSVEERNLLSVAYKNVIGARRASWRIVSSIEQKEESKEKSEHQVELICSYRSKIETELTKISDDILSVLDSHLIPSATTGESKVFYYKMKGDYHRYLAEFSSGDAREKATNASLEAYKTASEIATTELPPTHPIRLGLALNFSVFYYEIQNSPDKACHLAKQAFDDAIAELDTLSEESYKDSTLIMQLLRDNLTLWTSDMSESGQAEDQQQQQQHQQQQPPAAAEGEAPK

GFP-tagged BMH1 = molecular target: T2, GFP-tagged BMH1 (Saccharomyces cerevisiae, UniProt P29311 2-267); assay: co-IP, Nb on NHS-agarose beads, lysate of GFP-fusion yeast strain, SDS-PAGE and anti-GFP Western blot
T2 construct: Yeast GFP Fusion Collection strain; also called Yeast GFP fusion collection GFP(+)27, D5; not shown: GFP tag
T2 sequence (looked up): T1 sequence (looked up)
Text: After washing, these beads were resuspended in SDS-PAGE loading dye and analyzed on SDS-PAGE (FIG. 8A). Separated proteins were transferred to a PVDF membrane and the Western blot (FIG. 8B) was developed with GFP-specific antibody to confirm the presence of GFP-tagged targets.
For each target selection of binders in this example, as detailed in Table 2, after 3 rounds of selection by panning using NANEX technology, individual clones were isolated from the enriched sub-library by plating tenfold serial dilutions of the overnight-grown phage-infected E. coli TG1 cells in LB. 96 individual clones were picked and grown in a 96-well plate containing LB supplemented with 100 μg/ml ampicillin. Plasmids containing the Nanobody encoding genes were purified, sequenced and grouped into sequence families (Material and methods). A representative member of each sequence family was selected. Their encoding plasmid was transformed into the E. coli WK6 expression strain to express and purify each Nanobody of interest. […] After washing, these beads were resuspended in SDS-PAGE loading dye and analyzed on SDS-PAGE (as in the Figure specified in Table 2 for each target). […] For each target-specific Nanobody analysed in this way, the co-immunoprecipitation with the EBY100 lysate gives a predominant band corresponding to the expected molecular weight of the target protein. […]

GFP-tagged SXM1 = molecular target: T3, GFP-tagged SXM1 (Saccharomyces cerevisiae, UniProt Q04175 1-944); assay: co-immunoprecipitation, Nb coupled to NHS-agarose beads, lysate of the yeast strain expressing the GFP-tagged target, Western blot anti-GFP
T3 construct: Yeast GFP Fusion Collection strain; also called Yeast GFP fusion collection GFP(+)04, H9; not shown: GFP tag
T3 sequence (looked up): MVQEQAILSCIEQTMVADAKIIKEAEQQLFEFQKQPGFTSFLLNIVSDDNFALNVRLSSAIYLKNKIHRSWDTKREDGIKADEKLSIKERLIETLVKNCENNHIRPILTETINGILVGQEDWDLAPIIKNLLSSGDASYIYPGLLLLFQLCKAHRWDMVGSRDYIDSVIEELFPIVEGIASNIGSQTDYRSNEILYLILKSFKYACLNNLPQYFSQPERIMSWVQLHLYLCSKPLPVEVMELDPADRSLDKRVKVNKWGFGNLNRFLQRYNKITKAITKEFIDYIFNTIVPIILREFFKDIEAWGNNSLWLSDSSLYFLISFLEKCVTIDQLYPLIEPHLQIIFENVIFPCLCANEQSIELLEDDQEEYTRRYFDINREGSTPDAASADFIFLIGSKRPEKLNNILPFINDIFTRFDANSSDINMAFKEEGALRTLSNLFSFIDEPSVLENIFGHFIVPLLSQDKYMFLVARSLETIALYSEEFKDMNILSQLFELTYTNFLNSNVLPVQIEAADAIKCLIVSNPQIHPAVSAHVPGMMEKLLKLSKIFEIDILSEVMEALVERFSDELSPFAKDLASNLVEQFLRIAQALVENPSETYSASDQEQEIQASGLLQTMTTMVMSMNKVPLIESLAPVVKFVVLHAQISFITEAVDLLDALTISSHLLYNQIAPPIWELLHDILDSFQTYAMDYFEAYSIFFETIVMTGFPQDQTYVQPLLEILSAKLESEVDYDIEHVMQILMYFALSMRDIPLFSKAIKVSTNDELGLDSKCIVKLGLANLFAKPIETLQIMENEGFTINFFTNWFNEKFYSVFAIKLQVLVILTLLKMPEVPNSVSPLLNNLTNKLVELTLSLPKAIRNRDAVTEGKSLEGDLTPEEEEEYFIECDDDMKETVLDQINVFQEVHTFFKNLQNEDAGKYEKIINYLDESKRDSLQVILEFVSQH
Experimental: One SXM1-specific Nanobody (30=Nb clone CA17530 corresponding to SEQ ID NO: 18) was characterized by co-immunoprecipitation assays. The SXM1-specific Nanobody was covalently linked to NHS-agarose beads. The beads that were functionalized with this SXM1-specific Nanobody were incubated for an hour at 4° C. on a rotating device with either an EBY100 lysate or the lysate of the engineered Yeast strain expressing SXM1 GFP(+)04, H9) as a GFP-tagged protein. After washing, these beads were resuspended in SDS-PAGE loading dye and analyzed on SDS-PAGE (FIG. 9A). Separated proteins were transferred to a PVDF membrane and the Western blot (FIG. 9B) was developed with GFP-specific antibody to confirm the presence of GFP-tagged SXM1.

[2] = molecular target: T4, SXM1 (native, from EBY100 lysate) (Saccharomyces cerevisiae, UniProt Q04175 1-944); assay: co-IP, Nb on NHS-agarose beads, EBY100 yeast lysate, SDS-PAGE
T4 construct: mature; Endogenous untagged protein; also called YDR395W
T4 sequence (looked up): T3 sequence (looked up)

binding result [1]: binds | binding result (GFP-tagged BMH1): binds
B1: CA17459 (VHH)
VHH: QVQLVESGGGEVQTGGSLRLSCTASGSRLNFGSWNWYRKRGENYRELVAAMGPSTGHTHYGDSMKGRVTISLNAAKDTLFLQMNSLKPEDTAVYYCAADLDGLGFPRGSFYGMDYWGKGTQVTVSS
notes: C-terminal 6xHis-EPEA tag is part of the entry

binding result (GFP-tagged SXM1): binds | binding result [2]: binds
B2: CA17530 (VHH)
VHH: QVQLVESGGGLVQTGGSLRLSCVVSKTLFSINAMAWYRQSPGKPRELVAGWTSGGRTSYGDSVKGRFTISRDNAENTLYLQMNDVKPEDTAVYHCAADYLVVAGKPGYDYAYWGQGTQVTVSS
notes: as for B1
